For assay [1], the target named is T1, in vitro imported Arabidopsis thaliana plastid PDC E1α subunit (Arabidopsis thaliana, UniProt O24457 69-428).
T1 construct: Translated in vitro and imported into chloroplasts
T1 sequence: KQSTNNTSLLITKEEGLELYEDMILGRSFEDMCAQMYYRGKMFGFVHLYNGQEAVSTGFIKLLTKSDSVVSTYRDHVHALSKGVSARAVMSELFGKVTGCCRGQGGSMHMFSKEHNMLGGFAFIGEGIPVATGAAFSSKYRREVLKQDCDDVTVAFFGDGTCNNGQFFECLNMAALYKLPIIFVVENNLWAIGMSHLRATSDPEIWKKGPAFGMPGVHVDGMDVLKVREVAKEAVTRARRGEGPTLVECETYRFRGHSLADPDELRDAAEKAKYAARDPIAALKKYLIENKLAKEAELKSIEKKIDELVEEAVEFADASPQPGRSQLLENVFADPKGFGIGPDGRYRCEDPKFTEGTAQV
As to the kind of experiment: in vitro import into chloroplasts and assembly.

Assay [2] concerns the target T2, plastid pyruvate dehydrogenase heterotetramer (imported plastid PDC E1α and E1β subunits) (Arabidopsis thaliana, UniProt O24457 69-428; Q9C6Z3 74-406).
T2 construct: also called this heterotetramer
T2 sequence 1: T1 sequence
T2 sequence 2: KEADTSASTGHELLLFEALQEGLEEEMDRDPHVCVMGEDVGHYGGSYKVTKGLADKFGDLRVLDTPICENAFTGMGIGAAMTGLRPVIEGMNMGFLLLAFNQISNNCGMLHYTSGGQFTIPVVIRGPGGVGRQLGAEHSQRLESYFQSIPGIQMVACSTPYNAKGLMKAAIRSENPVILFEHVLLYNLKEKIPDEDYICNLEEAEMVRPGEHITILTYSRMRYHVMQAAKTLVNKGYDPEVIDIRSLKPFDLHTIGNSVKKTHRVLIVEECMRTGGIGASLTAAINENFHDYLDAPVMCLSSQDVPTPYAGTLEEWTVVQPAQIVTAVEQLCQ
Nature of the assay: in vitro import into chloroplasts and assembly.

B1: in vitro imported Arabidopsis thaliana plastid PDC E1β subunit (enzyme)
chain: T2 sequence 2
notes: Translated in vitro and imported into chloroplasts
Consider B1, for which the binding result in assay [1] was “binds”.

B2: in vitro imported Arabidopsis thaliana plastid PDC E2 subunit (enzyme)
chain: IREIFMPALSSTMTEGKIVSWIKTEGEKLAKGESVVVVESDKADMDVETFYDGYLAAIVVGEGETAPVGAAIGLLAETEAEIEEAKSKAASKSSSSVAEAVVPSPPPVTSSPAPAIAQPAPVTAVSDGPRKTVATPYAKKLAKQHKVDIESVAGTGPFGRITASDVETAAGIAPSKSSIAPPPPPPPPVTAKATTTNLPPLLPDSSIVPFTAMQSAVSKNMIESLSVPTFRVGYPVNTDALDALYEKVKPKGVTMTALLAKAAGMALAQHPVVNASCKDGKSFSYNSSINIAVAVAINGGLITPVLQDADKLDLYLLSQKWKELVGKARSKQLQPHEYNSGTFTLSNLGMFGVDRFDAILPPGQGAIMAVGASKPTVVADKDGFFSVKNTMLVNVTADHRIVYGADLAAFLQTFAKIIENPDSLTL
notes: Translated in vitro and imported into chloroplasts; also called imported PDC E2 subunits
As to B2, in assay [2], the binding result is on record as “binds”.

These data come from patent publication US6773917 (CURATORS OF THE UNIVERSITY OF MISSOURI, dated 2004).
